Laboratory results reported in article PMC5881448 (The Journal of General Physiology, 2018).
pKd: −log10 of the molar value. Where no end group is shown, it is not given here.

Assays:
[1] = molecular target: mEAG1 intrinsic-ligand peptide (mEAG1#696–702), fluorescein-labeled (mouse); assay: fluorescence polarisation
[2] = molecular target: hERG1 intrinsic-ligand peptide (hERG1#857–863), fluorescein-labeled (human) (UniProt Q12809); assay: fluorescence polarisation
zELKΔ740–742 channels = format: cell-based, Danio rerio; conditions: inside-out patches, X. laevis oocytes, with or without MgATP

Chain of UniProt Q12809 (Q12809 whole entry, looked up, tested part not stated): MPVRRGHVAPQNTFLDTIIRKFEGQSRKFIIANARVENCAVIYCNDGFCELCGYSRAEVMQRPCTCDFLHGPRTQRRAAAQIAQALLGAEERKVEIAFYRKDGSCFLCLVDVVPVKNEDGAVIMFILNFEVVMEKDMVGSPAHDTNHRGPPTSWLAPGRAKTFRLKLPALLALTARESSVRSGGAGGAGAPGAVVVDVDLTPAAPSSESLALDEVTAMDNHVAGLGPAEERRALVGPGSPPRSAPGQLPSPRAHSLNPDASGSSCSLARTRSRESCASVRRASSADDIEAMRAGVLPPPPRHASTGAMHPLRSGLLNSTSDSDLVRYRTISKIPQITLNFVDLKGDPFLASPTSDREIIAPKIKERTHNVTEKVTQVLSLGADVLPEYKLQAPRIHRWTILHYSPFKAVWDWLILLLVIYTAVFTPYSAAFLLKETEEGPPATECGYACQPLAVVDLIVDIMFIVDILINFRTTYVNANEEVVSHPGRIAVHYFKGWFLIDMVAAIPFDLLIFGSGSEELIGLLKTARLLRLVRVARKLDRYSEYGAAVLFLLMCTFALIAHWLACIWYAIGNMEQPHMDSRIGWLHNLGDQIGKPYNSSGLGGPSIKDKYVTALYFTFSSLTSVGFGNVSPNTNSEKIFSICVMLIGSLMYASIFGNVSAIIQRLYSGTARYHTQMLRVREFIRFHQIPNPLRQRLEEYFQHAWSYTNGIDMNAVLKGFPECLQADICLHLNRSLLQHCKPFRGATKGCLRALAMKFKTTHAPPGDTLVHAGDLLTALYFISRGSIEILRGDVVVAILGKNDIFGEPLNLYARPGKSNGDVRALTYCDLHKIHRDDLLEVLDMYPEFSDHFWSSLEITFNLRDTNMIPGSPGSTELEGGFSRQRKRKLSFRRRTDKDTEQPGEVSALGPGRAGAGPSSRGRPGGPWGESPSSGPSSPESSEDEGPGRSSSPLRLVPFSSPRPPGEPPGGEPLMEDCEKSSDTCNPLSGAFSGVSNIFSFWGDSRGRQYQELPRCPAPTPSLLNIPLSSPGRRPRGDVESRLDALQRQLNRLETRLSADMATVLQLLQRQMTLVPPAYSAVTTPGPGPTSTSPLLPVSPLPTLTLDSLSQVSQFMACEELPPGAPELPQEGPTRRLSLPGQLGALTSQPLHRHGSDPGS

Substance	pKd [1]	pKd [2]	modulation of zELKΔ740–742 channels regardless of MgATP (zELKΔ740–742 channels)
MBP–C-linker/CNBHD of zELK channel (Q543–L750), wild type (domain or fragment)	4.07	–	–
MBP–C-linker/CNBHDΔ740–742 of zELK channel (Q543–L750 without Y740–L742) (domain or fragment)	4.43	4.05	–
hERG1 peptide: intrinsic-ligand peptide from hERG1 channels (#857–863) (EITFNLR; also: fluorescein label, position not given here)	–	–	did not produce an appreciable amount of modulation
